According to US20250076311A1 (Chugai, published 2025):
Positions count from the first letter of the chain named. In names and notes the source's numbering stands.

Experiments:
[1] = molecular target: T1, cynomolgus monkey FcγRIIIaS extracellular domain with C-terminal His-tag (cynomolgus monkey, UniProt Q8SPW2 21-206 at identity 1.00)); assay: SPR, KD(parent SG1)/KD(variant)
T1 construct: also called cyno FcgRIIIaS; cynoFcγRIIIaS
T1 chain: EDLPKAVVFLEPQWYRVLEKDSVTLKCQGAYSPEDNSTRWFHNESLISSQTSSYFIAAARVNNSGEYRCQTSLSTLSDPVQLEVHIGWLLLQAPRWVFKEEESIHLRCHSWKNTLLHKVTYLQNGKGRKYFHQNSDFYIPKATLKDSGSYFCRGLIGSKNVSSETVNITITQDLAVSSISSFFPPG

[2] = molecular target: T2, human FcγRIIaH extracellular domain with C-terminal His-tag (human, UniProt P12318 34-217); assay: SPR, KD(parent SG1)/KD(variant)
T2 construct: also called human FcgRIIaH; FcγRIIa (type H)
T2 sequence: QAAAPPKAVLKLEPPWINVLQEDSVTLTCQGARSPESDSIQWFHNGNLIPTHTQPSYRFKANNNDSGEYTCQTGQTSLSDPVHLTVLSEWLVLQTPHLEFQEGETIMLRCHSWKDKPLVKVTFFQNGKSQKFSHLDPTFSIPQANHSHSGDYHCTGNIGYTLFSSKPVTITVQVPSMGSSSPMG

[3] = molecular target: T3, human FcγRIIb extracellular domain with C-terminal His-tag (human, UniProt P31994 43-217); assay: SPR, KD(parent SG1)/KD(variant)
T3 construct: also called human FcgRIIb
T3 sequence: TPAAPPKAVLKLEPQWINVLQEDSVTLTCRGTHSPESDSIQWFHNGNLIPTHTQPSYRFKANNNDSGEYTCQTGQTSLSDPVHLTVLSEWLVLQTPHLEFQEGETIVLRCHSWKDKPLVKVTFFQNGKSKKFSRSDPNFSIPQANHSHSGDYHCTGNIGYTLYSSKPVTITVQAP

[4] = molecular target: T4, cynomolgus monkey FcγRIIb extracellular domain, His-tagged (cynomolgus monkey); assay: SPR (BIACORE), antibody captured, FcγR analyte, 25 C; KD of SG1 divided by KD of variant
T4 construct: also called cyno FcγRIIb; cynoFcgRIIb
T4 chain: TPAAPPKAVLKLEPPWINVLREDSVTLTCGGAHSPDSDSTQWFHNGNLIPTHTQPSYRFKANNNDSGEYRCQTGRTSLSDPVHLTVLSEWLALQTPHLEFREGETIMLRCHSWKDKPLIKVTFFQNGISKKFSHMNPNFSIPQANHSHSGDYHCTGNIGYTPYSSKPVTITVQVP
Description: (§1) The kinetic analysis of interactions between these antibodies and FcγR was carried out using BIACORE® T200 or BIACORE® 4000 (GE Healthcare). HBS-EP+ (GE Healthcare) was used as the running buffer, and the measurement temperature was set to 25° C. […] After the measurement, the antibody captured on the chip was washed off by allowing reaction with 10 mM glycine-HCl, pH1.5 and 25 mM NaOH so that the chip was regenerated and used repeatedly. The sensorgrams obtained as measurement results were analyzed by the 1:1 Langmuir binding model using the BIACORE® Evaluation Software to calculate the binding rate constant ka (L/mol/s) and dissociation rate constant kd (1/s), and the dissociation constant KD (mol/L) was calculated from these values. […] Regarding such interactions, KD values were calculated using the following 1:1 binding model described in BIACORE® T100 Software Handbook BR1006-48 Edition AE.

[5] = molecular target: T5, cynomolgus monkey FcγRIIIaS extracellular domain, His-tagged (cynomolgus monkey, UniProt Q8SPW2 21-206 at identity 1.00)); assay: as above
T5 construct: also called cyno FcγRIIIaS; cynoFcgRIIIaS
T5 chain: T1 chain
Description: as §1

[6] = molecular target: T6, human FcγRIIIaV extracellular domain with C-terminal His-tag (human, UniProt P08637 17-208); assay: SPR (Biacore), antibody captured, FcgR analyte
T6 construct: also called human FcgRIIIaV
Description: as §1
T6 sequence (P08637 17-208 F176V): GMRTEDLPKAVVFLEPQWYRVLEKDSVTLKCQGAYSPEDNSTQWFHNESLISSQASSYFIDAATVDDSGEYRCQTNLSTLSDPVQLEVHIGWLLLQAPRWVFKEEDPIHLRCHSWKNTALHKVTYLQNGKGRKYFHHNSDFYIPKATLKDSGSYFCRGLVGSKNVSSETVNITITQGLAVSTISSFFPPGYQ

[7] = molecular target: T7, cynomolgus monkey FcγRIIa3 extracellular domain with C-terminal His-tag (cynomolgus monkey); assay: SPR (Biacore), KD of SG1 / KD of variant
T7 construct: also called cyno FcgRIIa3; cynoFcγRIIa3
T7 chain: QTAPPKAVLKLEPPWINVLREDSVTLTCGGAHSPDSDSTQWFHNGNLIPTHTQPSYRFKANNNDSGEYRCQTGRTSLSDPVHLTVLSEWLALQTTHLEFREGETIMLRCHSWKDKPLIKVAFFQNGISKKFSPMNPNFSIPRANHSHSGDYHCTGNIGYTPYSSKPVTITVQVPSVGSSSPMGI
Description: as §1

[8] = molecular target: T8, human FcγRIIaR extracellular domain with C-terminal His-tag (human, UniProt P12318 34-217); assay: SPR (Biacore), antibody captured, FcgR analyte
T8 construct: also called human FcgRIIaR; FcγRIIa (type R)
T8 chain: T2 sequence with H134R
Description: as §1

[9] = molecular target: T9, cynomolgus monkey FcγRIIa3 extracellular domain with C-terminal His-tag (cynomolgus monkey); assay: SPR (BIACORE), antibody captured, FcgR analyte
T9 construct: also called cyno FcgRIIa3; cynoFcγRIIa3; not shown: His-tag added to the C-terminus
T9 chain: T7 chain

[10] = molecular target: T10, cynomolgus monkey FcγRIIb extracellular domain with C-terminal His-tag (cynomolgus monkey); assay: SPR (BIACORE), antibody captured, FcgR analyte
T10 construct: also called cyno FcgRIIb; cynoFcγRIIb; not shown: His-tag added to the C-terminus
T10 chain: T4 chain

[11] = molecular target: T11, cynomolgus monkey FcγRIIIaS extracellular domain with C-terminal His-tag (cynomolgus monkey, UniProt A3RFZ7 21-206 (rhesus entry)); assay: SPR (BIACORE), antibody captured, FcgR analyte
T11 construct: also called cyno FcgRIIIaS; cynoFcγRIIIaS; not shown: His-tag added to the C-terminus

[12] = molecular target: T12, human FcγRIIaR extracellular domain with C-terminal His-tag (human, UniProt P12318 34-217); assay: SPR (BIACORE), antibody captured, FcgR analyte
T12 construct: also called human FcgRIIaR; FcγRIIa type R; not shown: His-tag added to the C-terminus
T12 chain: T2 sequence with H134R

[13] = molecular target: T13, human FcγRIIIaV extracellular domain with C-terminal His-tag (human, UniProt P08637 17-208); assay: SPR (BIACORE), antibody captured, FcgR analyte
T13 construct: also called human FcgRIIIaV; not shown: His-tag added to the C-terminus
T13 sequence (P08637 17-208 F176V): as the sequence (P08637 17-208 F176V) above

[14] = molecular target: T14, human FcγRIIb extracellular domain with C-terminal His-tag (human, UniProt P31994 43-217); assay: SPR (BIACORE), antibody captured, FcgR analyte
T14 construct: also called human FcgRIIb; not shown: His-tag added to the C-terminus
T14 sequence: T3 sequence

B1: MS1032LO06-SG1033 (antibody, human IgG1, kappa, name in EU numbering)
heavy: QVTLKESGPVLVKPTETLTLTCTVSGIDLSHDDISWVRQAPGKGLEWVGIISYAGSTYYASWAKGRLTISKDTSKNQVVLTMTNMDPVDTATYYCARGVPAYSHGGDLWGQGTLVTVSSASTKGPSVFPLAPSSKSTSGGTAALGCLVKDYFPEPVTVSWNSGALTSGVHTFPAVLQSSGLYSLSSVVTVPSSSLGTQTYICNVNHKPSNTKVDKKVEPKSCDKTHTCPPCPAPELLNGPSVFLFPPKPKDTLMISRTPEVTCVVVDVSDEDPEVKFNWYVDGVEVHNAKTKPREEQYNSTYRVVSVLTVLHQDWLNGKEYKCKVSNKALPKPIEKTISKAKGQPREPQVYTLPPSREEMTKNQVSLTCLVKGFYPSDIAVEWESNGQPENNYKTTPPVLDSDGSFFLYSKLTVDKSRWQQGNVFSCSVMHEALHAHYTQKSLSLSP
light: DIVMTQSPATLSLSPGERATLSCTSSQSVYHANWLSWFQQKPGQPPKLLIYWASTLAYGVPSRFSGSGSGTDFTLTISSLQPEDAATYYCAGGYGGGRYAFGQGTKVEIKRTVAAPSVFIFPPSDEQLKSGTASVVCLLNNFYPREAKVQWKVDNALQSGNSQESVTEQDSKDSTYSLSSTLTLSKADYEKHKVYACEVTHQGLSSPVTKSFNRGEC
notes: tied to rows r11/r29 by row order only; also called MS103205H795-SG1033; copies: 2 + 2
[1]
  KD fold (SG1 = 1): 0.06 fold
[2]
  KD fold (SG1 = 1): 0.5 fold
[3]
  KD fold (SG1 = 1): 1 fold

B2: M103205H795-MY445/M103202L889-SK1 (antibody, human IgG1, kappa, name in EU numbering)
heavy: B1 heavy with P234G, N238T, A436N
light: B1 light
[4]
  KD fold (SG1 = 1): 1.3 fold
[5]
  KD fold (SG1 = 1): 0.2 fold

B3: MS1032LO19-SG1080 (antibody, name in EU numbering)
heavy: QVQLVESGGGLVQPGGSLRLSCAVSGIDLSHDDISWVRQAPGKGLEWVSIISYAGSTYYASWAKGRLTISKDTSKNQVVLTMTNMDPVDTATYYCARGVPAYSHGGDLWGQGTLVTVSSASTKGPSVFPLAPSSKSTSGGTAALGCLVKDYFPEPVTVSWNSGALTSGVHTFPAVLQSSGLYSLSSVVTVPSSSLGTQTYICNVNHKPSNTKVDKKVEPKSCDKTHTCPPCPAPELLNGPSVFLFPPKPKDTLMISRTPEVTCVVVDVSDEDPEVKFNWYVDGVEVHNAKTKPREELYNSTYRVVSVLTVLHRDWLNGKEYKCKVSNTALPKPIEKTISKAKGQRREPQVYTLPPSREEMTKNQVSLTCLVKGFYPSDIAVEWESNGQPENNYKTTPPVLDSDGSFFLYSKLTVDKSRWQQGNVFSCSVMHEALHAHYTRKELSLSP
light: B1 light with S25T, A32E
notes: tied to rows r18/r36 by row order only; also called MS103240H795-SG1080
[1]
  KD fold (SG1 = 1): 0.18 fold
[2]
  KD fold (SG1 = 1): 2.5 fold

B4: M103205H795-MY265/M103202L889-SK1 (antibody)
heavy: B1 heavy with N238T, A436N
light: B1 light
notes: Substitutions in EU numbering on SG1; the cell prints I236T, the text gives Thr at 236 of MY201 (G236T)
[6]
  Kd: 5.4 µM

B5: M103205H795-MY448/M103202L889-SK1 (antibody, human IgG1, kappa, name in EU numbering)
heavy: B1 heavy with P234K, N238T, A436N
light: B1 light
[4]
  KD fold (SG1 = 1): 0.8 fold
[5]
  KD fold (SG1 = 1): 0.2 fold

B6: M103205H795-MY446/M103202L889-SK1 (antibody, human IgG1, kappa, name in EU numbering)
heavy: B1 heavy with P234H, N238T, A436N
light: B1 light
[4]
  KD fold (SG1 = 1): 2.5 fold
[5]
  KD fold (SG1 = 1): 0.2 fold

B7: M103205H795-MY448/M103202L889-SK1 (antibody, human IgG1, kappa)
heavy: B1 heavy with P234K, N238T, A436N
light: B1 light
notes: Substitutions in EU numbering on SG1
[7]
  KD fold (SG1 = 1): 0.6 fold
[8]
  Kd: 21 nM
[6]
  Kd: 1.3 µM

B8: MS1032LO06-SG1034 (antibody, human IgG1, kappa, name in EU numbering)
heavy: B1 heavy with N238T, Q313R, D415K
light: B1 light
notes: tied to rows r12/r30 by row order only; also called MS103205H795-SG1034; copies: 2 + 2
[1]
  KD fold (SG1 = 1): 0.11 fold
[2]
  KD fold (SG1 = 1): 2.7 fold
[3]
  KD fold (SG1 = 1): 1 fold

B9: M103205H795-MY210/M103202L889-SK1 (antibody, human IgG1, kappa, name in EU numbering)
heavy: B1 heavy with K328T, A436N
light: B1 light
notes: Fc variant of MS1032LO06-SG1; positions in EU numbering
[9]
  Kd: 2300 nM
[10]
  Kd: 280 nM
[11]
  Kd: 2400 nM
[12]
  Kd: 1400 nM
[13]
  Kd: 31 µM

B10: M103205H795-MY212/M103202L889-SK1 (antibody, human IgG1, kappa, name in EU numbering)
heavy: B1 heavy with S241V, Q297L, K328T, A436N
light: B1 light
notes: as for B9
[9]
  Kd: 2900 nM
[10]
  Kd: 570 nM
[11]
  Kd: 2600 nM

B11: M103205H795-MY288/M103202L889-SK1 (antibody, human IgG1, kappa, name in EU numbering)
heavy: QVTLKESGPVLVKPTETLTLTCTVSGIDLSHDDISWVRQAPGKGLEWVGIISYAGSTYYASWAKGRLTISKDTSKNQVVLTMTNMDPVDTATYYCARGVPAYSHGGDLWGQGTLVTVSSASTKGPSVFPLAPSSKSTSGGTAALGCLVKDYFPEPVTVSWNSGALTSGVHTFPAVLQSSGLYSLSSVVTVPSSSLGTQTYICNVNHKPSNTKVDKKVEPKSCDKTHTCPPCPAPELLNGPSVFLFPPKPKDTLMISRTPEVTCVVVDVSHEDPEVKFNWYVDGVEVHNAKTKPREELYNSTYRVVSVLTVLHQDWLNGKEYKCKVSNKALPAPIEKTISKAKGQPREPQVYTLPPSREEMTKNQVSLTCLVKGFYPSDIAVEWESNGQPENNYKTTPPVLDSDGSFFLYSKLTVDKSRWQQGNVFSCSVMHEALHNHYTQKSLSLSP
light: B1 light
notes: as for B9
[10]
  Kd: 1200 nM
[11]
  Kd: 1.3 nM
[14]
  Kd: 5.1 µM
